± gives the standard deviation of the averaged measurements.

The subject of this data set is VchCAST RNA-guided transposition machinery (E. coli BL21(DE3) host, lacZ target). Nature of the data set: relative integration efficiency (T-RL orientation) vs wild-type transposon end (log2 (normalized fold change)); transposon end mutated: right end (5 bp flank + 75 bp right end); higher = more efficient transposition. A digest of the protocol: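 A T7-driven effector plasmid encoding a CRISPR array, tniQ-cas8-cas7-cas6 and tnsA-tnsB-tnsC was co-transformed into E. coli BL21(DE3) together with a pUC57 mini-transposon donor holding barcoded pools of 1549 left-end or 1849 right-end variants. Transformants were plated with 0.1 mM IPTG at 37°C for 18 h. Illumina sequencing of PCR-amplified input plasmids and genomic integration junctions gave barcode abundances, and relative integration efficiency is their output/input fold change, normalised to reference barcodes and log-transformed.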
Take “ACATTTGTTGATACAACCAGCAAATGATAATTACACCCATAAATTGATAATTATCACACCCATAAATTGATATTGCCTCTGATCATAGTCAGACCAACATTGCTACGACCCGTATTCGCACCGACAC”: the “relative integration efficiency (log2)” value was -2.72 ± 0.21. Next, “ACATTTGTTGATACAACCTAAAAATGATAATTACACCCATAAATTGATAATTATCACACCCATAAATTGATATTGCCTCTGATCATAGTCAGACCAACATTGCTACGACCCGTATTCGCACCGACAC”: -0.616 ± 0.0067; “ACATTTGTTGATACAACCATAAAATGATAATTAATAATTATTTATAACACCCATAAATTGATAATTATCACACCCATAAATTGATATTGCCTCTGATCATAGTCAGACCAACATTGCTACGACCCGT”: -3.19 ± 0.2; “ACCGGGGTTGATACAACCATAAAATGATAATTACACCCATAAATTGATAATTATCACACCCATAAATTGATATTGCCTCTGATCATAGTCAGACCAACATTGCTACGACCCGTATTCGCACCGACAC”: -6.81 ± 0.49. In the case of “ACATTTGTTGATACAACCATAAAATGATAATTACACCCATAACGGTATAATTATCACACCCATAAATTGATATTGCCTCTGATCATAGTCAGACCAACATTGCTACGACCCGTATTCGCACCGACAC” it was -1.01 ± 0.024; in that of “ACATTTGTTGATACAACCATAAAATGATAATTACACCCATAAATTGATAATTATCCCACCCCATTTAACTATAACGCTCTGATCATAGTCAGACCAACATTGCTACGACCCGTATTCGCACCGACAC”, -1.3 ± 0.37; in that of “ACATTTGTTGATACAACCATAAAATGATAATTACACCCATAAATTGATAATTATCACACCCATAAATTGATATTGCCTCTGGCGCTCTGTACCCCGCTCGGTCCTCCCGCGCATCGCGCACCGACAC”, 0.194 ± 0.14.

For “ACATTTGTTGATACAACCATAAAATTCGCATTACACCCATAAATTGATAATTATCACACCCATAAATTGATATTGCCTCTGATCATAGTCAGACCAACATTGCTACGACCCGTATTCGCACCGACAC”, the “relative integration efficiency (log2)” value is -2.95 ± 0.25. Next, “ACATTTGTTGATACAACCAATTTTTGATAATTACACCCAATTTATGATAATTATCACACCCAATTTATGATATTGCCTCTGATCATAGTCAGACCAACATTGCTACGACCCGTATTCGCACCGACAC”: -1.89 ± 0.22. Consider “ACATTTGTTGATACAACCATAAAATGATAATTAATAATTACACCCATAAATTGATAATTATCAACAAACGCCCGGTCGCGGTACTCTGATCATAGTCAGACCAACATTGCTACGACCCGTATTCGCA”, for which the “relative integration efficiency (log2)” value was -2.18 ± 0.28. Turning to “ACATTTGTTGATACAACCATCAAATGGTAATTCCACCCCTACATTGATAATTATCACACCCAATTTAACTATAACGCTCTGATCATAGTCAGACCAACATTGCTACGACCCGTATTCGCACCGACAC”, the “relative integration efficiency (log2)” value is -5.71 ± 0.097. As to “ACATTTGTTGATACAACCATAAAATGATAATTACACCCATAAATTGATAATTATCACACCCATAAATTGATATTGCCTCTGTTTATGGCTAGCTCAGTCCTAGGTACAATGCTAGCCGCACCGACAC”, the “relative integration efficiency (log2)” value is -0.0948 ± 0.31. Next, “ACATTTGTTGATACACCCATAAATTGATAATTACAACCATAAGTTGATATTTTTCACAACCATAAAGTGATATTTACTCTGATCATAGTCAGACCAACATTGCTACGACCCGTATTCGCACCGACAC”: -0.613 ± 0.13; “ACATTTGTTGATACAACGATAAAATGATAATTACACCGATAAATTGATAATTATCACACCGATAAATTGATATTGCCTCTGATCATAGTCAGACCAACATTGCTACGACCCGTATTCGCACCGACAC”: -0.127 ± 0.12; “ACATTTGTTGATACACCCATAAATTGATAATTACACCCATAAATTGATATTGCTCAGTGGGTATTTAACTATAACGCTCTGATCATAGTCAGACCAACATTGCTACGACCCGTATTCGCACCGACAC”: -1.23 ± 0.25. In the case of “ACATTTGTAGATAAAACCATACGTTGATTTTACGAAACCATACGCTGAAATAATCACACCCATAAATTGATATTGCCTCTGATCATAGTCAGACCAACATTGCTACGACCCGTATTCGCACCGACAC”, the “relative integration efficiency (log2)” value was -6.57 ± 0.4. Next, “ACTAAAGTTGATACAACCATAAAATGATAATTACACCCATAAATTGATAATTATCACACCCATAAATTGATATTGCCTCTGATCATAGTCAGACCAACATTGCTACGACCCGTATTCGCACCGACAC”: -6.65 ± 0.58; “ACATTTGTTGATACAACCATAAAATGATAATTACACCCATAAATTGATAATTATCACACCCATAAATTGATATTGCCTCTGATCATAGTCAGACCAACCATAAAATGATAATTACAAGCACCGACAC”: -0.253 ± 0.23.

For the sequence “ACATTTGTTCATACAACCATAAAATGATAATTACCACCCCTACATTGATAATTATCACACCCATTTAACTATAACGCTCTGATCATAGTCAGACCAACATTGCTACGACCCGTATTCGCACCGACAC”, the “relative integration efficiency (log2)” value was -4.944 ± 0.019. As to “ACATTTGTTGATACAACCATAAAATGATAATTACCCCCATAAATTGATAATTATCACACCCCATTTAACTATAACGCTCTGATCATAGTCAGACCAACATTGCTACGACCCGTATTCGCACCGACAC”, the “relative integration efficiency (log2)” value was -0.917 ± 0.1. On to “ACATTTGTTCATACAACCCTAAAATGATAATTACACCCATAAATGGATAATTATCACACCCAATTTAACTATAACGCTCTGATCATAGTCAGACCAACATTGCTACGACCCGTATTCGCACCGACAC”, for which the “relative integration efficiency (log2)” value was -3.9 ± 0.37. On to “ACATTTGTTGATACAACCCTAAAATGATAATTACACCCATAAATTCATCATTATCACCCCCAATTTAACTATAACGCTCTGATCATAGTCAGACCAACATTGCTACGACCCGTATTCGCACCGACAC”, for which the “relative integration efficiency (log2)” value was -4.72 ± 0.23. As for “ACATTTGTTGATACAACCATAAAATGATAATTACACCCATAAATTGATAATTATCACACCCATAAATTGATATTGCCTCTGATCAAAATGTGAGCGAGTAACAACCTAGTCAGACCAGCACCGACAC”, the “relative integration efficiency (log2)” value is -0.102 ± 0.08. Next, “ACATTTGTTGATACAACCATATATTGATATCTCCACCCATAAATTGATAATTATCAGTGGGTATTTAACTATAACGCTCTGATCATAGTCAGACCAACATTGCTACGACCCGTATTCGCACCGACAC”: -1.01 ± 0.15; “ACATTTGTTGATACACCCATAAATTGATATTGCCAACCATAAGTTGATATTTTTCACACCCATAAATTGATAATTACTCTGATCATAGTCAGACCAACATTGCTACGACCCGTATTCGCACCGACAC”: -0.7 ± 0.21; “ACATTTGTTGATACCACCATCAAATGGTAATTCCACCCCTACATTGATAATTATCACACCCAATTTAACTATAACGCTCTGATCATAGTCAGACCAACATTGCTACGACCCGTATTCGCACCGACAC”: -6.99 ± 0.2. As to “ACATTTGCTGATACTACCATATAATGATAATAACACCCATAAAATGATAATTATCACACCCAATTTAACTATAACGCTCTGATCATAGTCAGACCAACATTGCTACGACCCGTATTCGCACCGACAC”, the “relative integration efficiency (log2)” value is -2.27 ± 0.43. Consider “ACATTTGTTGATACAACCATATAATGATAATTACACCCATATATTGATAATTATCACACCCATATATTGATATTGCCTCTGATCATAGTCAGACCAACATTGCTACGACCCGTATTCGCACCGACAC”, for which the “relative integration efficiency (log2)” value amounted to 0.0833 ± 0.11. In the case of “ACATTTGTTGATACAACCATAAAATTCGCCGGCACAAACGCCCGGTCGCCGGCGACACAAACGCCCGGTCGCGGTAAGAGGATCATAGTCAGACCAACATTGCTACGACCCGTATTCGCACCGACAC” it was -4.45 ± 0.73. Next, “ACATTTGTTGATACACCCATAAATTGATAATTACACCCATAAATTGATAATTATCACAACCATAAGTTGATATTTTCTCTGATCATAGTCAGACCAACATTGCTACGACCCGTATTCGCACCGACAC”: -0.361 ± 0.17; “ACATTTGTTGATACACCCATAAATTGATATTGCCAACCATAAGTTGATATTTTTCACAACCATAAAATGATAATTACTCTGATCATAGTCAGACCAACATTGCTACGACCCGTATTCGCACCGACAC”: -0.413 ± 0.23; “ACATTTGTTGATACAACCATCAAATGATAATTCCACCCCTAAATTGATAATTATCACACCCAATTTAACTATAACGCTCTGATCATAGTCAGACCAACATTGCTACGACCCGTATTCGCACCGACAC”: -3.65 ± 0.074.

(Values after the supplement of paper PMC10201428.)
